This passage reports KD results from article PMC3819287.

In this test the target is J17 (pH-sensitive anti-PCSK9 mAb, variant of J16) engineered pH-sensitive variant of J16; substitutions not stated in this article (see ref 9). Put plainly: KinExA (kinetic exclusion assay), multi-curve global analysis. Particulars: pH 7.4; room temperature (approximately 23 C); 154 mM NaCl; PBS pH 7.4 (1 mM KH2PO4, 5.6 mM Na2HPO4, 154 mM NaCl). Background: In KinExA the mixture passes briefly over coated beads that capture the unbound partner.

Usually KD stands for the free concentration of one partner at which half of the binding sites on the other are occupied at equilibrium, for simple one-to-one binding. A high value points to a looser complex. On to “rhPCSK9 (recombinant human proprotein convertase subtilisin/kexin type 9)”, for which the KD amounted to 0.064 nM.
